The values below come from the supplement of paper PMC7125110.

To fix the notation:
B1: glmS ribozyme (parent)
chain: AUAAAAGCGCCAGAACUACAGAAAUGUAGUUGACGAGGAGGAGGUUUAUCGAAUUUUCGGCGGAUGCCUCCAAA

± gives the standard error. Variants at the floor of the assay were thinned out.

What all share (conditions): with glucosamine-6-phosphate
In series [1] the parent is B1. The experiment in a line: self-cleavage kobs at 160 uM GlcN6P; higher = faster cleavage; RNA array. The method, boiled down: (§1)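 Glucosamine-6-phosphate (40 μM to 10 mM) in HEPES/KCl/Mg(OAc)2 buffer was flowed over sequenced MiSeq chips, and tiles were imaged over ~14 h. Barcoded ribozyme variants there had been transcribed in situ by E. coli RNA polymerase and were tracked through a hybridised Cy3 probe at 37 °C. One- or two-exponential decay fits to per-tile medians, normalised to baseline and to non-cleaving reference variants, gave kobs. kcat and KM came from weighted Michaelis–Menten fits across concentrations.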

In series [2] the parent is B1. The experiment in a line: self-cleavage kobs at 640 uM GlcN6P; higher = faster cleavage; RNA array. The procedure, abridged:
as §1

Variants of B1 are the subject of series [3]. Description: self-cleavage kobs at 2500 uM GlcN6P; higher = faster cleavage; RNA array. The procedure, abridged: as §1
In series [4] the parent is B1. Description: self-cleavage kobs at 10000 uM GlcN6P; higher = faster cleavage; RNA array. The method, boiled down: as §1

Turning to AUAAAAGCGCCAGAACUACAGAAAUGUAGCUGACUAGGAGGAGGUUUAUCGAAUUUUUGGAGGAUGCCUCCAAA [U30C G35U C58U C61A], in the series with glucosamine-6-phosphate [1], the “self-cleavage kobs at 160 uM GlcN6P” value was under 1e-05 s⁻¹. Further, in the series with glucosamine-6-phosphate [2], the “self-cleavage kobs at 640 uM GlcN6P” value was under 1e-05 s⁻¹. Besides, in the series with glucosamine-6-phosphate [3], the “self-cleavage kobs at 2500 uM GlcN6P” value is under 1e-05 s⁻¹.
AUAAAAGCGCCAGAACUACAGAAAUGUAGUUGGCGAGGAGGCGGUUUAUCGAAUUUUCGGCGGAUGCCUCCAAA [A33G A42C]: the “self-cleavage kobs at 160 uM GlcN6P” value in the series with glucosamine-6-phosphate [1] is under 1e-05 s⁻¹. Also, the “self-cleavage kobs at 640 uM GlcN6P” value in the series with glucosamine-6-phosphate [2] is under 1e-05 s⁻¹. Besides, the “self-cleavage kobs at 2500 uM GlcN6P” value in the series with glucosamine-6-phosphate [3] is under 1e-05 s⁻¹. Also, in the series with glucosamine-6-phosphate [4], the “self-cleavage kobs at 10000 uM GlcN6P” value was under 1e-05 s⁻¹.
Consider AUAAAAGCGCCAGAACUACAGAAAUGUAGUUGACGAGGAGGAGGUUUAUCGAAUUUUAGUUGGAUGCCUCAAAA [C58A G60U C61U C71A], for which the “self-cleavage kobs at 160 uM GlcN6P” value in the series with glucosamine-6-phosphate [1] is under 1e-05 s⁻¹. The “self-cleavage kobs at 2500 uM GlcN6P” value in the series with glucosamine-6-phosphate [3] was under 1e-05 s⁻¹.
As to AUAAAGGCGCCAUAACUACAGAAAUGUACUUGACGAGGAGGAGGUUUAUGGAAUUUUCGGCGGAUGCCUCCAAA [A6G G13U G29C C50G], in the series with glucosamine-6-phosphate [1], the “self-cleavage kobs at 160 uM GlcN6P” value came out at 0.000248 ± 5.8e-05 s⁻¹. Moreover, the “self-cleavage kobs at 640 uM GlcN6P” value with glucosamine-6-phosphate [2] stood at 0.00012 ± 4.1e-05 s⁻¹. The “self-cleavage kobs at 2500 uM GlcN6P” value in the series with glucosamine-6-phosphate [3] was found to be 0.000163 ± 4.4e-05 s⁻¹.
As for AUAAAAGCGCCUGCACUACAGAAAUGUAGUUGACGAGGACGUGGGUUAUCGAAUUUUCGGCGGAUGCCUCCAAA [A12U A14C G40C A42U U45G], the “self-cleavage kobs at 160 uM GlcN6P” value with glucosamine-6-phosphate [1] is under 1e-05 s⁻¹. For the same variant, the “self-cleavage kobs at 640 uM GlcN6P” value with glucosamine-6-phosphate [2] is under 1e-05 s⁻¹.
As for AUAAAAGCGCCAGAACUACAGAAAUGUAGUGGACAAGGAGGAGGUUUAUCGAAUUUUCGGCGGAUGCCUCCAAA [U31G G35A], the “self-cleavage kobs at 160 uM GlcN6P” value with glucosamine-6-phosphate [1] was under 1e-05 s⁻¹. Further, in the series with glucosamine-6-phosphate [2], the “self-cleavage kobs at 640 uM GlcN6P” value was under 1e-05 s⁻¹. In addition, the “self-cleavage kobs at 10000 uM GlcN6P” value in the series with glucosamine-6-phosphate [4] was under 1e-05 s⁻¹.
For the variant AUAAAAGCGCCAGAGCUACAGAAAUGUAGUUGACGUGGAGGAGGUUUAUAGAAUUUUCGACGGAUGCCUCCAAA [A15G A36U C50A G60A], in the series with glucosamine-6-phosphate [1], the “self-cleavage kobs at 160 uM GlcN6P” value was under 1e-05 s⁻¹. Besides, the “self-cleavage kobs at 640 uM GlcN6P” value in the series with glucosamine-6-phosphate [2] is under 1e-05 s⁻¹.
For AUAAAAGAGCCAGAAAUACAGAAAUGUAGUUGACGAGGAGGAGGUUCAUCGAAUUUUGGGCGGAUGCCUCCAAA [C8A C16A U47C C58G], the “self-cleavage kobs at 160 uM GlcN6P” value with glucosamine-6-phosphate [1] is under 1e-05 s⁻¹. The “self-cleavage kobs at 640 uM GlcN6P” value with glucosamine-6-phosphate [2] was under 1e-05 s⁻¹.
For AUAAAAGCGCUAUAACUACAGAAAUGUAGUUGACGAGGAGGAGGUUUAGCGAAUUUUCGGCGGAUGCCUCCAAA [C11U G13U U49G], the “self-cleavage kobs at 160 uM GlcN6P” value with glucosamine-6-phosphate [1] is under 1e-05 s⁻¹. The “self-cleavage kobs at 640 uM GlcN6P” value in the series with glucosamine-6-phosphate [2] is under 1e-05 s⁻¹. For the same variant, the “self-cleavage kobs at 2500 uM GlcN6P” value in the series with glucosamine-6-phosphate [3] was under 1e-05 s⁻¹.
As to AUAAAAGCGCCAGUGCUACAGAAAUGUAGUUGACCAGGAGGAGGUUUAUCGAAUUUUCGGCGGAUGCCUCCAAA [A14U A15G G35C], the “self-cleavage kobs at 160 uM GlcN6P” value with glucosamine-6-phosphate [1] was under 1e-05 s⁻¹. Moreover, the “self-cleavage kobs at 2500 uM GlcN6P” value with glucosamine-6-phosphate [3] was under 1e-05 s⁻¹. For the same variant, the “self-cleavage kobs at 10000 uM GlcN6P” value with glucosamine-6-phosphate [4] is under 1e-05 s⁻¹.
Turning to AUAAAAGGGCCCGAACUACAGAAAUGUAGUUGACGCGGAGGAGGUUUAUCGAAUUUUCAGCGGAUGCCUCCAAA [C8G A12C A36C G59A], the “self-cleavage kobs at 160 uM GlcN6P” value in the series with glucosamine-6-phosphate [1] is under 1e-05 s⁻¹. In addition, the “self-cleavage kobs at 2500 uM GlcN6P” value with glucosamine-6-phosphate [3] is under 1e-05 s⁻¹.
For the variant AUAAAAGCGCCAGAACUACAGAAAUGUAGUUGACGCGCAGGAGGUUUAUCGAAUUUUCGGCGAAUGCCUCCAAA [A36C G38C G63A], in the series with glucosamine-6-phosphate [1], the “self-cleavage kobs at 160 uM GlcN6P” value was under 1e-05 s⁻¹.
On to AUAAAACGGCCAGAACUACAGAAAUGUAGUUGACGAGGAGGAGGUUUAUCGAAUUUUCGGCGGAUGCCUCCAAA [G7C C8G], for which the “self-cleavage kobs at 160 uM GlcN6P” value with glucosamine-6-phosphate [1] is under 1e-05 s⁻¹. For the same variant, the “self-cleavage kobs at 640 uM GlcN6P” value with glucosamine-6-phosphate [2] is under 1e-05 s⁻¹. In addition, the “self-cleavage kobs at 2500 uM GlcN6P” value with glucosamine-6-phosphate [3] was under 1e-05 s⁻¹. Also, the “self-cleavage kobs at 10000 uM GlcN6P” value in the series with glucosamine-6-phosphate [4] is under 1e-05 s⁻¹.
On to AUAAAAGCGCCAGAACUACAGAAAUGUAGUUGACGAGGAGGAAGUUUAUCGAAUUUUCGUCGGAUGCCUCCAAA [G43A G60U], for which, in the series with glucosamine-6-phosphate [1], the “self-cleavage kobs at 160 uM GlcN6P” value was under 1e-05 s⁻¹. The “self-cleavage kobs at 640 uM GlcN6P” value with glucosamine-6-phosphate [2] was under 1e-05 s⁻¹. Further, the “self-cleavage kobs at 10000 uM GlcN6P” value with glucosamine-6-phosphate [4] is under 1e-05 s⁻¹.
